Experimental data published in patent US20250145694A1 (GUANGDONG FEIPENG BIOLOGICAL, published 2025).
Where a chain is given by its changes, count along the chain named.

B1: Mutation 1-28 (antibody)
heavy: EVQMVESGGGLLKPGGSLKLSCAASGFTYSNYAMSWVRQTPEKRLEWVATISSGGSYSYYPDSVKGRFTISRDNAKNTLYLQMLSLRSEDTAMYYCARRDNYPGSTFMDYWGQGSSVTVSSAKTTPPSVYPLAPGSAAQTNSMVTLGCLVKGYFPEPVTVTWNSGSLSSGVHTFPAVLQSDLYTLSSSVTVPSSTWPSQTVTCNVAHPASSTKVDKKIVPRDCGCKPCICTVPEVSSVFIFPPKPKDVLTITLTPKVTCVVVDISKDDPEVQFSWFVDDVEVHTAQTKPREEQFNSTFRSVSELPIMHQDWLNGKEFKCRVNSAAFPAPIEKTISKTKGRPKAPQVYTIPPPKEQMAKDKVSLTCMITNFFPEDITVEWQWNGQPAENYKNTQPIMDTDGSYFVYSKLNVQKSNWEAGNTFTCSVLHEGLHNHHTEKSLSHSPG
light: DIQMTQTSSSLSASLGDRVTISCRASQDITNYLNWYQQKPDGTIKLLIYYTSRLHSGVSSRFSGSGSGTDYSLTISNLEQEDIATYFCQQGHTLPLTFDTGTKLELKRADAAPTVSIFPPSSEQLTSGGASVVCFLNNFYPKDINVKWKIDGSERQNGVLNSWTDQDSKDSTYSMSSTLTLTKDEYERHNSYTCEATHKTSTSPIVKSFNRNEC
notes: assembled FR/CDR/constant
B2: Mutation 1-46 (antibody)
heavy: B1 heavy with Y59F, P103Y
light: B1 light with D28E
notes: assembled FR/CDR/constant
B3: Mutation 1-36 (antibody)
heavy: B1 heavy with P103Y
light: B1 light with D28E, L54I, H92N
notes: assembled FR/CDR/constant
B4: Mutation 1-43 (antibody)
heavy: B1 heavy with Y29F
light: B1 light with H92N, L94I
notes: assembled FR/CDR/constant
B5: Mutation 1-32 (antibody)
heavy: B1 heavy with P103Y, T106S
light: B1 light with L54I, H92N, L94I
notes: assembled FR/CDR/constant
B6: Mutation 1-30 (antibody)
heavy: B1 heavy with Y59F, P103F, T106S
light: B1 light with D28E, L94I
notes: assembled FR/CDR/constant
B7: Mutation 1-40 (antibody)
heavy: B1 heavy with P103F
light: B1 light with D28E, L54I, H92N
notes: assembled FR/CDR/constant; Same printed sites as Mutation 1-4
B8: Mutation 1-37 (antibody)
heavy: B1 heavy with Y29F, Y59F, P103Y, T106S
light: B1 light
notes: assembled FR/CDR/constant
B9: Mutation 1-48 (antibody)
heavy: B1 heavy
light: B1 light with D28E, L54I, H92N, L94I
notes: assembled FR/CDR/constant
B10: Mutation 1-47 (antibody)
heavy: B1 heavy with Y29F, T106S
light: B1 light with L54I, H92N
notes: assembled FR/CDR/constant
B11: Mutation 1-38 (antibody)
heavy: B1 heavy with Y59F
light: B1 light with H92N, L94I
notes: assembled FR/CDR/constant
B12: Mutation 1-42 (antibody)
heavy: B1 heavy with Y59F, P103Y, T106S
light: B1 light with D28E, L54I, L94I
notes: assembled FR/CDR/constant
B13: Mutation 1-41 (antibody)
heavy: B1 heavy with Y29F, Y59F, P103F, T106S
light: B1 light with D28E, H92N
notes: assembled FR/CDR/constant
B14: Mutation 1-39 (antibody)
heavy: B1 heavy with Y29F, T106S
light: B1 light with L54I, L94I
notes: assembled FR/CDR/constant
B15: Mutation 1-33 (antibody)
heavy: B1 heavy with Y29F, Y59F
light: B1 light with L94I
notes: assembled FR/CDR/constant
B16: Mutation 1-45 (antibody)
heavy: B1 heavy with Y29F, Y59F, P103F
light: B1 light with D28E, L54I, H92N, L94I
notes: assembled FR/CDR/constant
B17: Mutation 1-29 (antibody)
heavy: B1 heavy with Y29F, Y59F, P103F, T106S
light: B1 light with D28E, L54I, H92N, L94I
notes: assembled FR/CDR/constant
B18: Mutation 1-35 (antibody)
heavy: B1 heavy with Y29F, P103F
light: B1 light
notes: assembled FR/CDR/constant
B19: Mutation 1-44 (antibody)
heavy: B1 heavy with T106S
light: B1 light
notes: assembled FR/CDR/constant
B20: Mutation 1-31 (antibody)
heavy: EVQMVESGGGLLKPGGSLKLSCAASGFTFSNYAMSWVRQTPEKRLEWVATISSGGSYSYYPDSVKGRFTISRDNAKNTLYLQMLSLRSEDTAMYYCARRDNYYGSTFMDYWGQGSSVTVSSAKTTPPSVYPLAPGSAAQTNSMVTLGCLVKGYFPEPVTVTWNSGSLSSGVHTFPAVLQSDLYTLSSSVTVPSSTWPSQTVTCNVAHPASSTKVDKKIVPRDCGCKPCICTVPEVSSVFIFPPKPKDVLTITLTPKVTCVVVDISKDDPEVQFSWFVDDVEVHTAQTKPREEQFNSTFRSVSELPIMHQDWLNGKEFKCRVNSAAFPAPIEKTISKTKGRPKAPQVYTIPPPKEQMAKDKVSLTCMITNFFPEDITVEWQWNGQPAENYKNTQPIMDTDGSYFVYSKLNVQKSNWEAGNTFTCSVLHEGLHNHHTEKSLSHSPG
light: B1 light with L54I, H92N
notes: assembled FR/CDR/constant
B21: Mutation 1-34 (antibody)
heavy: B1 heavy with Y59F, T106S
light: B1 light with L54I, H92N, L94I
notes: assembled FR/CDR/constant
B22: WT 1-1 (antibody, V domains shown)
VH: QVQLQQSGTELAKPGASVKFSCKASDYTFSTYWMYWIKQRPGQGLEWIGYINPSTGHTEYNQKFKDKATLTADKSSSTAYMQLNSLTSEDSAVYYCARRYYGPFAMDYWGQGTSVTVSS
VL: EIFLTQSPAIMSASPGEKVTMTCSASSSVSYAHWYQQKSGTSPKRWIYDSSKIASGIPVRFSGSGSGTSYSLTISSMEAEDAATYYCQNWSTNPYTFGGGTKLEIKR
B23: WT 1-5 (antibody, V domains shown)
VH: B22 VH with T31S, I51L, R99K, Y101W
VL: B22 VL

molecular target: T1, CTNI quality control recombinant antigen (human, UniProt P19429 1-210, limits assumed); test: BLI, antibody on AMC sensor, cTnI in solution
T1 construct: Recombinant antigen produced by the applicant; also called CTNI quality control recombinant protein (antigen produced by the company); cardiac troponin I
T1 sequence (P19429 whole entry): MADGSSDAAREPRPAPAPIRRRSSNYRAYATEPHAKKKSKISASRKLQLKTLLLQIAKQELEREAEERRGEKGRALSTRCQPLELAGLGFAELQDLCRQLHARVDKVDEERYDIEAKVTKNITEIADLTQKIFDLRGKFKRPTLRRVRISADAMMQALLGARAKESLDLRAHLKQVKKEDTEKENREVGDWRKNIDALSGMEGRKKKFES
Protocol: With an AMC sensor, the purified antibody was diluted to 10 μg/ml with PBST, and CTNI quality control recombinant protein (antigen produced by the company) was gradient diluted with PBST to 769.2 nmol/ml, 384.6 nmol/ml, 192.3 nmol/ml, 96.2 nmol/ml, 48.1 nmol/ml, 24 nmol/ml, 12 nmol/ml, and 0 nmol/ml.

**Q.** Which Kd does the source give for B1 here?
**A.** 3.68 nM

**Q.** And the koff?
**A.** 4.31e-05 s⁻¹

**Q.** What about the kon of the same binder?
**A.** 11700 M⁻¹ s⁻¹

**Q.** With B2 as the binder, how does the Kd read?
**A.** 4.93 nM

**Q.** And the koff?
**A.** 0.000274 s⁻¹

**Q.** And the kon?
**A.** 55600 M⁻¹ s⁻¹

**Q.** For B3, which Kd is on record?
**A.** 9.27 nM

**Q.** What about the koff of the same binder?
**A.** 0.000774 s⁻¹

**Q.** What about the kon of the same binder?
**A.** 83500 M⁻¹ s⁻¹

**Q.** What does the source list for B4?
**A.** Kd: 5.37 nM; koff: 0.000248 s⁻¹; kon: 46100 M⁻¹ s⁻¹

**Q.** For B5, which Kd is on record?
**A.** 8.38 nM

**Q.** And the koff?
**A.** 0.000266 s⁻¹

**Q.** What about the kon of the same binder?
**A.** 31700 M⁻¹ s⁻¹

**Q.** What does the source list for B6?
**A.** Kd: 5.76 nM; koff: 0.000163 s⁻¹; kon: 28300 M⁻¹ s⁻¹

**Q.** How did the Kd turn out when B7 was run?
**A.** 3.12 nM

**Q.** What about the koff of the same binder?
**A.** 0.000262 s⁻¹

**Q.** What about the kon of the same binder?
**A.** 83900 M⁻¹ s⁻¹

**Q.** B8 was tested. Which Kd did it give?
**A.** 4.2 nM

**Q.** And the koff?
**A.** 0.000299 s⁻¹

**Q.** What about the kon of the same binder?
**A.** 71000 M⁻¹ s⁻¹

**Q.** For B9, which Kd is on record?
**A.** 7.04 nM

**Q.** And the koff?
**A.** 0.000583 s⁻¹

**Q.** And the kon?
**A.** 82800 M⁻¹ s⁻¹

**Q.** Which Kd does the source give for B10 here?
**A.** 2.87 nM

**Q.** What about the koff of the same binder?
**A.** 9.47e-05 s⁻¹

**Q.** What about the kon of the same binder?
**A.** 33000 M⁻¹ s⁻¹

**Q.** What does the source list for B11?
**A.** Kd: 7.74 nM; koff: 0.00057 s⁻¹; kon: 73700 M⁻¹ s⁻¹

**Q.** With B12 as the binder, how does the Kd read?
**A.** 3.09 nM

**Q.** What about the koff of the same binder?
**A.** 0.000109 s⁻¹

**Q.** What about the kon of the same binder?
**A.** 35200 M⁻¹ s⁻¹

**Q.** B13 was tested. Which Kd did it give?
**A.** 9.24 nM

**Q.** And the koff?
**A.** 0.000774 s⁻¹

**Q.** And the kon?
**A.** 83800 M⁻¹ s⁻¹

**Q.** Which Kd does the source give for B14 here?
**A.** 6.25 nM

**Q.** What about the koff of the same binder?
**A.** 0.000509 s⁻¹

**Q.** And the kon?
**A.** 81400 M⁻¹ s⁻¹

**Q.** Which results are given for B15?
**A.** Kd: 0.979 nM; koff: 0.000521 s⁻¹; kon: 532000 M⁻¹ s⁻¹

**Q.** Which results are given for B16?
**A.** Kd: 9.02 nM; koff: 0.00019 s⁻¹; kon: 21100 M⁻¹ s⁻¹

**Q.** How did the Kd turn out when B17 was run?
**A.** 7.59 nM

**Q.** And the koff?
**A.** 0.000197 s⁻¹

**Q.** And the kon?
**A.** 26000 M⁻¹ s⁻¹

**Q.** Which Kd does the source give for B18 here?
**A.** 5.25 nM

**Q.** What about the koff of the same binder?
**A.** 0.000161 s⁻¹

**Q.** What about the kon of the same binder?
**A.** 30700 M⁻¹ s⁻¹

**Q.** For B19, which Kd is on record?
**A.** 3.53 nM

**Q.** What about the koff of the same binder?
**A.** 0.000171 s⁻¹

**Q.** What about the kon of the same binder?
**A.** 48500 M⁻¹ s⁻¹

**Q.** What does the source list for B20?
**A.** Kd: 8.73 nM; koff: 0.000744 s⁻¹; kon: 85200 M⁻¹ s⁻¹

**Q.** What does the source list for B21?
**A.** Kd: 8.44 nM; koff: 0.000255 s⁻¹; kon: 30200 M⁻¹ s⁻¹

**Q.** For B22, which Kd is on record?
**A.** 33.3 nM

**Q.** What about the koff of the same binder?
**A.** 0.000128 s⁻¹

**Q.** And the kon?
**A.** 3840 M⁻¹ s⁻¹

**Q.** How did the Kd turn out when B23 was run?
**A.** 8.35 nM

**Q.** What about the koff of the same binder?
**A.** 0.000743 s⁻¹

**Q.** And the kon?
**A.** 89000 M⁻¹ s⁻¹
